Biological target: T1, PCNA (Pol30) immunoprecipitated in the co-IP of Figure 2C (S. cerevisiae, UniProt P15873 1-258)
T1 construct: Pol30 (PCNA), S. cerevisiae; homotrimeric clamp of three copies of Pol30; No tag is named for PCNA in this experiment; the methods precipitate with an anti-PCNA antibody; source: S. cerevisiae, in lysate
T1 sequence (looked up): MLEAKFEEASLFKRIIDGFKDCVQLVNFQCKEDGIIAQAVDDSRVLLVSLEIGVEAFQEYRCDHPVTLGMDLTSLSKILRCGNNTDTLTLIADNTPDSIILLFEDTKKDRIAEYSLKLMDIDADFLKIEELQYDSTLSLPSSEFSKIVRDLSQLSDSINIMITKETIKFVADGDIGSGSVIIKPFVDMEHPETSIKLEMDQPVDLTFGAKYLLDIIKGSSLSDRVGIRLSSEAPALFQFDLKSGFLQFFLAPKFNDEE
Assay: co-IP; PCNA immunoprecipitated from yeast extract (methods: 2 μg anti-PCNA antibody, overnight at 4 °C, washes with lysis buffer at 220 mM NaCl); level of FLAG-tagged Pol3 or Pol3-01 co-IPed measured (Figure 2C)
Conditions: partners not purified

- fold reduction in co-IP against Pol3: 4 fold
B1: FLAG-tagged Pol3-01 (Pol3-01-Flag) of the co-IP of Figure 2C (natural protein, S. cerevisiae, UniProt P15436 1-1097, looked up)
chain: MSEKRSLPMVDVKIDDEDTPQLEKKIKRQSIDHGVGSEPVSTIEIIPSDSFRKYNSQGFKAKDTDLMGTQLESTFEQELSQMEHDMADQEEHDLSSFERKKLPTDFDPSLYDISFQQIDAEQSVLNGIKDENTSTVVRFFGVTSEGHSVLCNVTGFKNYLYVPAPNSSDANDQEQINKFVHYLNETFDHAIDSIEVVSKQSIWGYSGDTKLPFWKIYVTYPHMVNKLRTAFERGHLSFNSWFSNGTTTYDNIAYTLRLMVDCGIVGMSWITLPKGKYSMIEPNNRVSSCQLEVSINYRNLIAHPAEGDWSHTAPLRIMSFAIACAGRIGVFPEPEYDPVIQIANVVSIAGAKKPFIRNVFTLNTCSPITGSMIFSHATEEEMLSNWRNFIIKVDPDVIIGYNTTNFDIPYLLNRAKALKVNDFPYFGRLKTVKQEIKESVFSSKAYGTRETKNVNIDGRLQLDLLQFIQREYKLRSYTLNAVSAHFLGEQKEDVHYSIISDLQNGDSETRRRLAVYCLKDAYLPLRLMEKLMALVNYTEMARVTGVPFSYLLARGQQIKVVSQLFRKCLEIDTVIPNMQSQASDDQYEGATVIEPIRGYYDVPIATLDFNSLYPSIMMAHNLCYTTLCNKATVERLNLKIDEDYVITPNGDYFVTTKRRRGILPIILDELISARKRAKKDLRDEKDPFKRDVLNGRQLALKISANSVYGFTGATVGKLPCLAISSSVTAYGRTMILKTKTAVQEKYCIKNGYKHDAVVVYGDTDSVMVKFGTTDLKEAMDLGTEAAKYVSTLFKHPINLEFEKAYFPYLLINKKRYAGLFWTNPDKFDKLDQKGLASVRRDSCSLVSIVMNKVLKKILIERNVDGALAFVRETINDILHNRVDISKLIISKTLAPNYTNPQPHAVLAERMKRREGVGPNVGDRVDYVIIGGNDKLYNRAEDPLFVLENNIQVDSRYYLTNQLQNPIISIVAPIIGDKQANGMFVVKSIKINTGSQKGGLMSFIKKVEACKSCKGPLRKGEGPLCSNCLARSGELYIKALYDVRDLEEKYSRLWTQCQRCAGNLHSEVLCSNKNCDIFYMRVKVKKELQEKVEQLSKW
notes: Pol3, catalytic subunit of DNA polymerase delta, S. cerevisiae, pol3-01 allele (D321A, E323A); the tags may be swapped in the text; source: S. cerevisiae, in lysate
